# The DeepSol protein solubility set
# Assay: soluble on expression in E. coli; label from the status in PepcDB or PDB records
row,Sequence,soluble on expression in E. coli
1,DEEDANFMQRAFEMNDKVASDVMVDRTSMSVVDVDETIADALLLYLEEQYSRFPVTADNDKDKIIGYAYNYDIVRQARIDDKAKISTIMRDIVSVPENMKVPDVMEEMSAHRVPMAIVIDEYGGTSGIITDKDVYEELFGNLRDEQDDED,soluble
2,DFVHIMTPYLILDGELLHALKFAAERGVDVIIIMPGIPDKKSAYYLAKTYYPTLLASGVKIYEYTPGFIHAKVFVSDNSRAVVGTINLDYRSLYHHFECATYLYGTSSVLDIEEDFQATKDQCHRVSTTDVKNLPFYQKTLGLLARLVAP,not soluble
3,DGSCTNTNSQLSANSKCEKSTLTNCYVDKSEVYGTTCTGSRFDGVTITTSTSTGSRISGPGCKISTCIITGGVPAPSAACKISGCTFSAN,soluble
4,DIALTQPASVSGSPGQSITISCTGTSSDVGSNNYVSWYQQHPGKAPKLMIYGGSNRPSGVSNRFSGSKSGNTASLTISGLQAEDEADYYCRSWDSNLSYSVFGGGTKLTVLGQPKAAPSVTLFPPSSEELQANKATLVCLISDFYPGAVTVAWKADSSPVKAGVETTTPSKQSNNKYAASSYLSLTPEQWKSHRSYSCQVTHEGSTVEKTVAPTEA,soluble
5,DIGCYTLGALPPFREQDSATNMGSSLGISNGVFRSTDQVPVAVIGDSTFFHSGIEGVANAVYNNTAEIIVVLDNRSTAMTGQQPSPSTAIDIGNVCRAMGIEYVETFDPFDVDAGEKAVQQAAEYVKKTLKPAVIIAKRACALEVLEKVDSETPKAYVDSNRCT,not soluble
6,DIGCYTLGINKPLEGVDITICMGASVGVSNGLAHVLNNKIIATIGDSTFIHAGIPPLINAVYNHADFVLVILDNSTTGMTGHQPHPGTGFRGCGEAGKAVRIEDIVRGCGVEFVEVVNPYNVRKMVDVLRRALNHDGVAVVIARQPCAILWSRARRREGKIVTYKVTEDC,not soluble
7,DIGVWEYFPATDSLDWSDGVRRIHGVADEYEPSLDDALGFYHPDDRDKISKAVEQTIADREPYDIDLRIVRTDGDVRDVRAWGERVDDPQ,not soluble
8,DIQALALLEILDPIREGAAETLDYLRSQEVGLKIISGDNPVTVSSIAQKAGFADYHSYVDCSKITDEELMAMAEETAIFGRVSPHQKKLIIQTLKKAGHTTAMTGDGVNDILALREADCSIVMAEGDPATRQIANLVLLNSDFNDVPE,not soluble
9,DIQMTQSPASLSASVGETVTITCRASGNIHNYLAWYQQKQGKSPQLLVYYTTTLADGVPSRFSGSGSGTQYSLKINSLQPEDFGSYYCQHFWSTPRTFGGGTKLEIKRADAAPTVSIFPPSSEQLTSGGASVVCFLNNFYPKDINVKWKIDGSERQNGVLNSWTDQDSKDSTYSMSSTLTLTKDEYERHNSYTCEATHKTSTSPIVKSFNRNEC,soluble
10,DIQMTQSPSSLSASVGDRVTITCRTSGNIHNYLTWYQQKPGKAPQLLIYNAKTLADGVPSRFSGSGSGTQFTLTISSLQPEDFANYYCQHFWSLPFTFGQGTKVEIKRTGGGGSGGGGSGGGGSGGGGSEVQLVESGGGLVQPGGSLRLSCAASGFDFSRYDMSWVRQAPGKRLEWVAYISSGGGSTYFPDTVKGRFTISRDNAKNTLYLQMNSLRAEDTAVYYCARQNKKLTWFDYWGQGTLVTVSSHHHHHH,soluble
11,DITERHAREQKLREERAVIQQALDALDEPLFVTDIDGRLKHCNHRALELTGNTEETAVGTPITALFPDEERETIADAVDDALRTGRTTITASLCLDSGQQQRYEFRAHSLTDLDNNTAGLVILGQDVS,not soluble
12,DITGIPSGFNDLDQKTSGFQPGDLIIVAGRPSMGKTAFALNIGEHVALETSKPVAVFSMEMGGVQLAMRMLGSIGRLDQHKMRTGQLNDDDWPRLTHALGKLNDAPIFIDESAGLNSLELRARARRLYRQHEGLGLIIIDYLQLMSATSPGSENRAAEISEISRSLKALAKELQVPVIALSQLNRGLEQRPNKRPIMSDL,not soluble
13,DKIGTAVLQGVMQGRRAKDVAKEIEQITDATASRATFIARDQTSKMNAAFNEIRQVGLGIESYTWQTSGDERVREDHAAHDGTVFRWSDPPATGHPGQDYNCRCVAIPNVTLEGP,not soluble
14,DLHEILHEAVPLDANEREILELKEDAFAQRRREIETRLRAANGKLADAIAKNPAWSPEVEAATQEVERAAGDLQRATLVHVFEMRAGLKPEHRPAYDRVLIDALRRGSQ,soluble
15,DPTKNLRSVDLAVVNEDEGATRNGEFNRYGDKVVKGLLDKDYLAFKQVSADEAAKGLDNGTYLFTVTIPEKFSENVNTLLADQPTKPEIILSYNDFNGTNGSVLTGGLVPKIQQAVSASISESYATKLVNGVNKLGGGLERAADGSAKLEEGSGKLKDGLAKGVAGSQKLNDGSHQLAEGTAKLADGTGQLADGASRLAAGTAKLGNGAAQIDDGVGTLVNTLIPVLTTAQAAAPQLQQAADALRAVGMVAEADRIQDLATKFDANNPDNQVNKLNKLKNGTATLRYMLSDPSSEYYGGVLKLSDGVAKAHDGAVRLNDGAHRLADGTAQLANGTQQLYDGAGRLNEGANTLATKLDEGAKNAPKVPNAEASAKQISVPIVYKENNANPVQTVVDSNDPTAKKLNGGAS,not soluble
16,DQRQAEKALLESEQKFRSFIETTSEGFLILTPQLDINFSNTAICQLAGYSLTEMQGKSVLVFVTSESRKQLRQQLIMARSHSHLAAELTLMHKNGHHVFIRYKATVMADGNGFFTYITDIT,not soluble
17,DRFSTAVLALSLFQGAYTAEIFRAGLNSIPKGQFEAAQTLGLSPFYTYKDVILPQVLQRTLPPLTNEVVSLIKNSSIVSVMAIFDLTTQARNIVSETAMPFE,not soluble
18,DSDCHFAEQRDFSSQWFRVDDGGEIPDEQELHWHLEYLQQNPNAARDLLHALLPDKDASQGDWRCSYRLLQSADLMPLVFDYRWLMNGQFAFYLVDSASQENGGVATTLLVRALFDDYLRNLKSFSADLKDMVNIMEKGIECSDCAGAVK,not soluble
19,DSQDWHDWIDQALTERRLLLYFQPVVDCLDTQRVLHHKVLARLLDPQATAIAAGRFLPWIERFGWAARMDLAMLEQSLEHLRRHPRPLALSLSAASVRNAQTFAPLLALLKAHPQEARQLTLELDERHLPAAAELERLSQVLRELGCGLGLQHFGGRFSLIGNLTHLGLAYLKLDGCYLHAVDREGDKRLFIEAVYRTTHSIDLPLIAEQVETLGELEVLREMGLRGAMGRLFGSPAPWSGDA,soluble
20,DTEGKAHNEQAESIELEGDRIYKITLKDGLKFSDGTPIKAENFVKTWNYAVANDQLNASFFEGIKGFKEGVKELEGLKVVDDKTFTVELDQPESDFPSRLGYSAFFALPDIAFDDMAAFGENPVSSGPYKLAEWNHNESLTIVPNEEYQGDRKAKNDGVKFVFYASQDAAYSDLLAGNLDVLDQVPDSAFATYKDELGDRAVNQPAAVFQSFTIPEKLEHFSGEEGALRRAAISHAINREEITKTIFQDTRTPAKDFSSPVVDGYKEGLKGSEVVKFDSAKAKELWAQADKISKFTGEFTIAYNSDGGHQSWVDAVANQLKNNLGIAASGKPYPDFKSLRDEVTNHTITGAFRTGWQGDYPLLGNFLQPLYATNASSNDGQYSNPAFDAKLEEAAGAKSVEEGLKLYQEAEEILFKDLPAIPLWYANVNGGSSDKVSNVTFNWKSVAAYEQITKG,not soluble
21,DTVANASGPLMVEIVKTPGSALGISLTTTSLRNKSVITIDRIKPASVVDRSGALHPGDHILSIDGTSMEHCSLLEATKLLASISEKVRLEILPVPQSQRPLRPS,soluble
22,DTVKIDANVNYQIIQGFGGMSGVGWINDLTTEQINTAYGSGVGQIGLSIMRVRIDPDSSKWNIQLPSARQAVSLGAKIMATPWSPPAYMKSNNSLINGGRLLPANYSAYTSHLLDFSKYMQTNGAPLYAISIQNEPDWKPDYESCEWSGDEFKSYLKSQGSKFGSLKVIVAESLGFNPALTDPVLKDSDASKYVSIIGGHLYGTTPKPYPLAQNAGKQLWMTEHYVDSKQSANNWTSAIEVGTELNASMVSNYSAYVWWYIRRSYGLLTEDGKVSKRGYVMSQYARFVRPGALRIQATENPQSNVHLTAYKNTDGKMVIVAVNTNDSDQMLSLNISNANVTKFEKYSTSASLNVEYGGSSQVDSSGKATVWLNPLSVTTFVSK,soluble
23,DVNFILTFPTGYGKTTLSLEIVRMIDLKPTQNFSRLIHVVPTRSLAKDIQNSACERGLGFAVQYSFTPSHIKSPLFLAKFIITTYDSFLLNLYKASIGEPFSYHGHYDLPRFGIYTSLVHFDEFHLMNEGNSWTSLLGAVRHLSKVGVNMILSSATPSKSVEEELIRMMENRKVVRLAVVNEYGESVKNRNCV,not soluble
24,EALLNDSALQSVPIVVPSRGSKLLGATLKTELTQEEVQQTLVDGFFPQVAITDHPVQRNRGALTQMGLPYAQDAGITRHIAAFLSKQAHAQSGGESAQAQDFNPFANMPGMPGSDAAQSADFIKPTAILFNGGVLKSKLLATRLEDTINKWLIEADAEMAKRLTGVDLDLAVASGAAYYGSVRRGQGVRIRGGIASAYYVGIESAMPAIPGMAPPMEALCVAPFGMEEGSSVDVPSQEFGLIIGQPVNFQFFGSTVRRDDLAGTHLDYWAPEELEELPEIQVTLPVSEGRREGEVVPVTLASRVTELGTLYLEAIAADNGQKWHVEFDVREDAKSDSNEEQ,not soluble
25,EASLTGAGATFPAPVYAKWADTYQKETGNKVNYQGIGSSGGVKQIIANTVDFGASDAPLSDEKLAQEGLFQFPTVIGGVVLAVNIPGLKSGELVLDGKTLGDIYLGKIKKWDDEAIAKLNPGLKLPSQNIAVVRRADGSGTSFVFTSYLAKVNEEWKNNVGTGSTVKWPIGLGGKGNDGIAAFVQRLPGAIGYVEYCYAKQNNLAYTKLISADGKPVSPTEENFANAAKGADWSKTFAQDLTNQKGEDAWPITSTTFILIHKDQKKPEQGTEVLKFFDWAYKTGAKQANDLDYASLPDSVVEQVRAAWKTNIKDSSGKPLY,soluble
26,EAYIGVLIDDLVTKGTNEPYRLLTSRAEYRLLLRHDNADLRLTEKGYEIGLIARERYERFCEKKAQIAAEKKRLESITVKPSKEVNALLEEVGSAPLKEAVQANVFLKRPEVTYEHVAKVIPAPEQELSADVAEQVEIQIKYEGYISKMLQQVERAKKMNDKKIPEDLDYDAINGLATEAKQKLSEVRPLSVGQASRVSGVNPSDISILLVYLE,not soluble
27,ECGHISVSAPIVHLGDPITASCIIKQNCSHLDPEPQILWRLGAELQPGGRQQRLSDGTQESIITLPHLNHTQAFLSCSLNWGNSLQILDQVELRAGYPPAIPHNLSCLMNLTTSSLICQWEPGPETHLPTSFTLKSFKSRGNCQTQGDSILDCVPKDGQSHCSIPRKHLLLYQNMGIWVQAENALGTSMSPQLCLDPMDVVKLEPPMLRTMDPSPEAAPPQAGCLQLSWEPWQPGLHINQKCELRHKPQRGEASWALVGPLPLEALQYELCGLLPATAYTLQIRCIRWPLPGHWSDWSPSLELRTTERAAAPR,soluble
28,EECQVRVGDLTVAKTRGQLTDAAPIGPVTVQALGCNARQVALKADTDNFEQGKFFLISDNNRDKLYVNIRPMDNSAWTTDNGVFYKNDVGSWGGTIGIYVDGQQTNTPPGNYTLTLTGGYWAKDNKQGFTPSGTTGTTKLTVT,soluble
29,EEFPFALGVQTLPQTCDEPKAHTSFQISLSVSYTGSRSASNMAIVDVKMVSGFIPLKPTVKMLERSNHVSRTEVSSNHVLIYLDKVSNQTLSLFFTVLQDVPVRDLKPAIVKVYDYYETDEFAIAEYNAPCSKDLGNA,soluble
